Two molecules from US9458465B2, “Compositions and methods to modulate cell membrane resealing” (RUTGERS, THE STATE UNIVERSITY OF NEW JERSEY, priority 2007, dated 2016) can be followed below.

The subject of series [1] is FDB muscle fibers from wild type (WT) mice. Nature of the series: FM1-43 dye entry after UV-laser damage, wild type FDB muscle fibers. The class given is cell-based. The conditions noted are these: WT fibers; 2 μM zinc-ionophore. How it is done:
(§1) FIG. 20. Protective effect of zinc on membrane repair is lost in mg53−/− skeletal muscle. (a) individual flexor digitorum brevis (FDB) muscle fibers were isolated from wild type (WT) mice (3-6 months). A strong UV laser was applied to the FDB fiber that caused local damage to the muscle (arrow). Entry of FM1-43 fluorescent dye (2.5 μM) was used as an indicator for the measurement of membrane repair capacity. The images were taken 200 s following UV irradiation (control). […] (d) Schematic diagram of zinc-binding motifs in MG53. The amino-terminus of MG53 contains two putative zinc-binding motifs: one located at the RING motif (a.a. 1-56, human cDNA), and the other located at the B-box motif (a.a. 86-117, human cDNA). The specific amino acids that participate in zinc-binding are indicated.
as §1, with “Protective” for “FIG. 20. Protective”, “To access membrane repair capacity,” for “(a)”, “months) (FIG. 20a).” for “months).”, “Summary data for panel a and b (FIG. 20c). […]” for “(d)”, “indicated (FIG. 20d).” for “indicated.”

Series [2] has as its system FDB muscle fibers from mg53−/− mice. Nature of the series: FM1-43 dye entry after UV-laser damage, mg53−/− FDB muscle fibers. The format is cell-based. The conditions noted are these: mg53−/− fibers; +Zn-HPT. How it is done: as §1
as §1, with “Protective” for “FIG. 20. Protective”, “To access membrane repair capacity,” for “(a)”, “months) (FIG. 20a).” for “months).”, “Summary data for panel a and b (FIG. 20c). […]” for “(d)”, “indicated (FIG. 20d).” for “indicated.”

The test system of series [3] is C2C12 cells expressing GFP-MG53. Nature of the series: GFP-MG53 redistribution on agent application without injury. The format is cell-based, murine. The conditions noted are these: 20 μM Zn-HPT, prolonged incubation (15 min). The text has this:
Extracellular zinc entry is essential for MG53-mediated vesicle translocation to acute membrane injury sites. To follow the process of intracellular vesicle translocation associated with repair of acute membrane damage, GFP-MG53 fusion protein was expressed in C2C12 myoblast cells (FIG. 21a). […] Acute injury of the cell generated by penetration of a microelectrode caused rapid translocation of MG53-containing vesicles at the injury site (arrow, right panel). […] C2C12 cells transiently transfected with GFP-MG53 was incubated with 20 μM Zn-HPT. Under control condition (0 min), GFP-MG53 was distributed in the cytosol, as well as intracellular vesicles (FIG. 21d).
An active ingredient from notoginseng can facilitate MG53-membrane repair function. GFP-MG53 was expressed in C2C12 cells and then these cells were perfused with an alcohol extract from notoginseng. […] Based on this observation, we reasoned that a therapeutic approach with the combination of MG53 and notoginseng may provide additive protective effects in preventing both inflammation and membrane damage to the cells, and thus can improve the function of MG53 when applied in tandem with recombinant MG53 protein or when applied alone as a supplement of pharmaceutical.

For series [4] the test system is unchanged. Nature of the series: Repair of acute membrane damage: translocation to microelectrode injury site. The class given is cell-based, murine. As to conditions: C2C12 cells. On the procedure: To follow the process of intracellular vesicle translocation associated with repair of acute membrane damage, GFP-MG53 fusion protein was expressed in C2C12 myoblast cells (FIG. 21a). […]
Cell culture—The C2C12 murine myoblast cell line used for all studies was purchased from the American Type Culture Collection (Manassas, Va.). Cells were grown in a humidified environment at 37° C. and 5% CO2 in DMEM medium for C2C12 or Ham's F12 medium for CHO cells supplemented with 10% fetal bovine serum, 100 units/ml penicillin and 100 ug/ml streptomycin. In order to induce myotube differentiation, C2C12 myoblasts were grown to confluence and the medium was switched to DMEM containing 2% horse serum, penicillin (100 U/ml), streptomycin (100 μg/ml). For transient transfections, C2C12 myoblasts or CHO cells were plated at 70% confluence in glass-bottom dishes. After 24 hours, cells were transfected with plasmids described above using GeneJammer reagent (Stratagene). Cells were visualized by live cell confocal imaging at 24-48 hours after transfection or at times indicated for individual experiments. In some experiments, C2C12 myoblasts were allowed to differentiate into myotubes for the indicated time before observation.
Live cell imaging—To monitor intracellular trafficking of GFP-MG53 either CHO or C2C12 cells were cultured in glass-bottom dishes (Bioptechs Inc.) and transfected with the plasmids described above. Fluorescence images (512×512) were captured at 3.18 s/frame using a BioRad 2100 Radiance laser scanning confocal microscope with a 63×1.3NA oil immersion objective.

Series [5] concerns E3-ligase activity of MG53. Nature of the series: In vitro ubiquitination with ATP, ubiquitin, E1 and E2 enzymes. The class given is biochemical. As to conditions: Ubc4 or UbcH5 as E2. How it is done:
To test whether MG53 can catalyze ubiquitination in vitro, we prepared a recombinant maltose-binding protein (MBP) fusion protein for MG53. MBP-MG53 was incubated with ATP, ubiquitin, E1 and E2 enzymes, and subjected to immunoblotting with the anti-MBP antibody. […] The exclusion of either ubiquitin, E1 or E2 (UbcH5) from the assay abolished the appearance of such ladders, confirming that the modification acquired by MBP-MG53 was indeed auto-ubiquitination. […] Thus, MG53 is a Ring-finger type ubiquitin ligase that couples with Ubc4/5 sub-family of E2 enzymes.

A further series concerns mg53−/− myotubes. Nature of the series: Membrane repair in transfected mg53−/− myotubes. The class given is cell-based, mice. The conditions noted are these: primary cultured mg53−/− myotubes. An excerpt:
The entry of FM4-64, a red-shifted variant of FM1-43, was used as an index of membrane repair capacity in mg53−/− myotubes transfected with GFP-MG53 and GFP-C242A. Following UV-bleaching of the green fluorescence, rapid translocation of GFP-MG53 took place at the injury site, whereas GFP-C242A remained static due to its defective oligomerization properties (FIG. 16E, 17A).
Similar defects with GFP-C29L were also observed in C2C12 myotubes (FIG. 18e, middle).

Turning to `[O-]n1ccccc1=S.[O-]n1ccccc1=S.[Zn+2]` [Zn-HPT, Zn-1-hydroxypyridine-2-thine], the “membrane repair capacity (FM1-43 dye entry)” value in series [1] is on record as “increased membrane repair capacity”; in series [2] it was “did not produce protective effect on membrane repair”. Further, the “redistribution of GFP-MG53” value in series [3] is “caused redistribution of GFP-MG53 toward the cell surface membrane and the intracellular membrane compartments”.

B1: C29L: MG53 mutant, Cys-29 in the Ring-finger motif replaced with leucine; GFP fusion, MBP fusion in b268 (protein)
chain: MSAAPGLLRQELSCPLCLQLFDAPVTAELGHSFCRACLIRVAGEPAADGTVACPCCQAPTRPQALSTNLQLSRLVEGLAQVPQGHCEEHLDPLSIYCEQDRTLVCGVCASLGSHRGHRLLPAAEAQARLKTQLPQQKMQLQEACMRKEKTVAVLEHQLVEVEETVRQFRGAVGEQLGKMRMFLAALESSLDREAERVRGDAGVALRRELSSLNSYLEQLRQMEKVLEEVADKPQTEFLMKFCLVTSRLQKILSESPPPARLDIQLPVISDDFKFQVWKKMFRALMPALEELTFDPSSAHPSLVVSSSGRRVECSDQKAPPAGEDTRQFDKAVAVVAQQLLSQGEHYWEVEVGDKPRWALGVMAADASRRGRLHAVPSQGLWLLGLRDGKILEAHVEAKEPRALRTPERPPARIGLYLSFADGVLAFYDASNPDVLTPIFSFHERLPGPVYPIFDVCWHDKGKNAQPLLLVGPEQEQA
modifications: left off: large carriers
notes: MG53 mutant, Cys-29 in the Ring-finger motif replaced with leucine; GFP fusion, MBP fusion
Consider B1, for which the “Membrane Repair (+Zn-HPT)” value in series [4] (2 μM Zn-HPT, listed as GFP-C29L) was “partially rescue the movement”. In addition, in series [4] (acute membrane damage), the “translocation to injury site and membrane repair function of GFP fusion protein” value was “immobile and ineffective in repair of membrane injury”. Also, in series [4] (extracellular solution with nominal free zinc, listed as GFP-C29L), the “Membrane Repair (−Zn-HPT)” value was “defective movement toward the acute injury site”. Further, in series [5], the “ubiquitination / intrinsic E3-ligase activity” value is listed as “significantly reduced”. In addition, the “translocation to the plasma membrane following injury” value in the series with mg53−/− myotubes was “remained generally unresponsive to acute cell injury”.
